Measurements reported in publication PMC7221075.

Key:
[1] = target: TMH-LOV2 V416L membrane anchor (Escherichia coli | Avena sativa)
[2] = target: TMH-LOV2 V416L membrane anchor (Escherichia coli | Avena sativa); remark: listed apart in the source
[3] = target: TMH-iLID membrane anchor (transmembrane helix of E. coli TatA, Val-Leu, Flag peptide, iLID) (Escherichia coli)

Substance | light/dark secretion ratio (L/D ratio) of native T3SS substrates, in vitro secretion assay, LITESEC-act2 (anchor from pBAD) [1] | light/dark secretion ratio (L/D ratio) of native T3SS substrates, in vitro secretion assay, LITESEC-act3 (anchor from pACYC184) [1] | secretion efficiency of heterologous cargo expressed from plasmid (YopE1-53-NanoLuc-FLAG), LITESEC-act3, in light [2] | light/dark secretion ratio (L/D ratio) of native T3SS substrates, in vitro secretion assay, LITESEC-supp2 (anchor from pACYC184) [3]
Zdk1-SctQ bait fusion protein | 2.16 | 4.18 | 50% | 
SspB_Nano-SctQ bait fusion protein |  |  |  | 0.26
